From patent US20150030599A1 (SAMSUNG ELECTRONICS, published 2015)

Target: T1, EGFR-Fc (#344-ER, R&D Systems) (UniProt P00533 25-645)
T1 construct: Bought reagent; not shown: Fc part of the bought fusion protein is not described
Assay: SPR (Biacore T100), ME22S captured on human Fab binder, EGFR-Fc injected
Procedure: In addition, the affinities of the prepared anti-c-Met/anti-EGFR bispecific antibody to the two types of antigens, c-Met and EGFR, were each identified using Biacore T100 (GE). A human Fab binder (GE Healthcare) was immobilized at the surface of a CM5 chip (#BR-1005-30, GE) according to the manufacturer's specifications. […] 10 mM Glycine-HCl (pH 1.5) solution was injected thereto to regenerate the surface. In order to measure affinity, the data obtained from this experiment was fitted using BIAevaluation software (GE Healthcare, Biacore T100 evaluation software).

B1: anti-c-Met/anti-EGFR bispecific antibody ME22S (bispecific antibody)
heavy: EVQLVESGGGLVQPGGSLRLSCAASGFTFTDYYMSWVRQAPGKGLEWLGFIRNKANGYTTEYSASVKGRFTISRDNSKNTLYLQMNSLRAEDTAVYYCARDNWFAYWGQGTLVTVSSASTKGPSVFPLAPCSRSTSESTAALGCLVKDYFPEPVTVSWNSGALTSGVHTFPAVLQSSGLYSLSSVVTVPSSNFGTQTYTCNVDHKPSNTKVDKTVERKCCVECPPCPAPPVAGPSVFLFPPKPKDTLMISRTPEVTCVVVDVSHEDPEVQFNWYVDGVEVHNAKTKPREEQFNSTFRVVSVLTVVHQDWLNGKEYKCKVSNKGLPAPIEKTISKTKGQPREPQVYTLPPSREEMTKNQVSLTCLVKGFYPSDIAVEWESNGQPENNYKTTPPMLDSDGSFFLYSKLTVDKSRWQQGNVFSCSVMHEALHNHYTQKSLSLSPGKGGGGSGGGGSEVQLLESGGGLVQPGGSLRLSCAASGFTFSNYDMSWVRQAPGKCLEWVSGISHSSGSKYYADSVKGRFTISRDNSKNTLYLQMNSLRAEDTAVYYCAKDATPRPLKPFDYWGQGTLVTVSSGGGGSGGGGSGGGGSQSVLTQPPSASGTPGQRVTISCTGSSSNIGNNDVSWYQQLPGTAPKLLIYDDNKRPSGVPDRFSGSKSGTSASLAISGLRSEDEADYYCGSWDASLNAYVFGCGTKLTVLG
light: DIQMTQSPSSLSASVGDRVTITCKSSQSLLASGNQNNYLAWYQQKPGKAPKMLIIWASTRVSGVPSRFSGSGSGTDFTLTISSLQPEDFATYYCQQSYSRPYTFGQGTKVEIKRTVAAPSVFIFPPSDEQLKSGTASVVCLLNNFYPREAKVQWKVDNALQSGNSQESVTEQDSKDSTYSLSSTLTLSKADYEKHKVYACEVTHQGLSSPVTKSFNRGEC
notes: The modified anti-EGFR scFv is fused through (G4S)2 to the C-terminus of the Fc of L3-1Y-IgG2
Work on B1 yielded a Kd of 0.49 nM, a koff of 9.2e-05 s⁻¹ and a kon of 190000 M⁻¹ s⁻¹.
